# According to article PMC12510224:
# Target: MDM2(S395D) S395D (UniProt Q00987)
# Assay: RNA co-IP (anti-MDM2 4B2) with RT-qPCR
# Conditions: RNA co-IP: 50 mM Tris pH 7.5, 150 mM NaCl, 0.01 mM ZnSO4, 2 mM MgCl2, 0.02 mg/mL yeast tRNA, 0.2 mg/mL BSA, room temperature, pull-down overnight at 4 C
# Chain of MDM2(S395D) S395D (Q00987 whole entry S395D): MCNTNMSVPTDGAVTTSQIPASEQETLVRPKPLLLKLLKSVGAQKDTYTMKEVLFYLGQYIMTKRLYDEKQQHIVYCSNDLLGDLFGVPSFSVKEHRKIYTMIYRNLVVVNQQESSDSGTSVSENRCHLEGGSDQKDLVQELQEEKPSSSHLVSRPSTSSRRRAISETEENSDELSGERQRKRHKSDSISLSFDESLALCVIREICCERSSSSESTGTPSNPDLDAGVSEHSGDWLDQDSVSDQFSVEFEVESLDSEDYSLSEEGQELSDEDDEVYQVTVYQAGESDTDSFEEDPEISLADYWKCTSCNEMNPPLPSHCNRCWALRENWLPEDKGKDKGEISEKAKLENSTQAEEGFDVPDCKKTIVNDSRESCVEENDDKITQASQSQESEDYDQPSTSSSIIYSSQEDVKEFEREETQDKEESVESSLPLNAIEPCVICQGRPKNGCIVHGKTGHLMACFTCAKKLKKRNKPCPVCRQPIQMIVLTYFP
sequence,measurement,value
AUGGAGGAGCCGCAGUCAGAUCCUAGCGUCGAGCCCCCUCUGAGUCAGGAAACAUUUUCAGACCUAUGGAAACUACUUCCUGAAAACAACGUUCUGUCCCCCUUGCCGUCCCAAGCAAUGGAUGAUUUGAUGCUGUCCCCGGACGAUAUUGAACAAUGGUUCACUGAAGACCCAGGUCCAGAUGAAGCUCCCAGAAUGCCAGAGGCUGCUCCCCCCGUGGCCCCUGCACCAGCAGCUCCU [p53 mRNA +1 to +240 WT],binding signal (fold increase over no BOX-I oligo),60
